Test results taken from US20260167699A1 (Chugai, published 2026).

T1: FcγRIIa(R) extracellular domain with C-terminal His tag (human, UniProt P12318 34-217)
T1 construct: extracellular domain; R131 allotype; also called 2aR; CD32
T1 sequence: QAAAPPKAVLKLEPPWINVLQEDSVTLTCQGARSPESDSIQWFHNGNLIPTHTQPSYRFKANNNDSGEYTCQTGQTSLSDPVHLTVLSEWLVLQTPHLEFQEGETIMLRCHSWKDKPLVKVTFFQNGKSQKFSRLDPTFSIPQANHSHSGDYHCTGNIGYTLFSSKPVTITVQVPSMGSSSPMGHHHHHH

T2: FcγRIIa(H) extracellular domain with C-terminal His tag (human, UniProt P12318 34-217)
T2 construct: extracellular domain; H131 allotype; also called 2aH; CD32
T2 sequence: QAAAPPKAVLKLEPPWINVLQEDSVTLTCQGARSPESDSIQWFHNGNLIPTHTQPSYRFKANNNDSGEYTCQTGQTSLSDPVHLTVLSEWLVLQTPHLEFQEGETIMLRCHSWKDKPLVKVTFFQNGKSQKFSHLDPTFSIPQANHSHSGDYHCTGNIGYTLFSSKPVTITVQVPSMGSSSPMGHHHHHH

T3: FcγRIIb extracellular domain with C-terminal His tag (human, UniProt P31994 43-217)
T3 construct: extracellular domain; also called 2b; CD32
T3 sequence: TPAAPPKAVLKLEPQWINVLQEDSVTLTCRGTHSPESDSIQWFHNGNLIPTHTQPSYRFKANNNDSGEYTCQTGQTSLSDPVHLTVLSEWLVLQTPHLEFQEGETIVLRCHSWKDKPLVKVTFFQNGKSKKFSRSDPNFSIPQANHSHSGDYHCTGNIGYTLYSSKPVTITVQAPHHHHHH

T4: FcγRIIa(R) (human, UniProt P12318 34-217)
T4 construct: extracellular domain; also called FcγRIIa R type; 2aR
T4 sequence: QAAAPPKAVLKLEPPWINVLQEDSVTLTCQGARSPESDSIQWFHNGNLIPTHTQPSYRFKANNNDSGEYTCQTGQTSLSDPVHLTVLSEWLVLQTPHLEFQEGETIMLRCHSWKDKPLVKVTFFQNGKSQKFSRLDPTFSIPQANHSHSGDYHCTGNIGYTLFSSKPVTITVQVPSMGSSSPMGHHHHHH

T5: FcγRIIa(H) (human, UniProt P12318 34-217)
T5 construct: extracellular domain; also called FcγRIIa H type; 2aH
T5 sequence: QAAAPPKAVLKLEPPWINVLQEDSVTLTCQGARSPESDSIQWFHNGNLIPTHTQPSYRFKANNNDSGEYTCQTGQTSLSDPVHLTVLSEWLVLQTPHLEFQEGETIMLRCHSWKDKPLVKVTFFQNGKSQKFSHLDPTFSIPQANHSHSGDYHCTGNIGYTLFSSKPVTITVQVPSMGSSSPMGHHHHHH

T6: FcγRIIb (human, UniProt P31994 43-217)
T6 construct: extracellular domain; also called 2b
T6 sequence: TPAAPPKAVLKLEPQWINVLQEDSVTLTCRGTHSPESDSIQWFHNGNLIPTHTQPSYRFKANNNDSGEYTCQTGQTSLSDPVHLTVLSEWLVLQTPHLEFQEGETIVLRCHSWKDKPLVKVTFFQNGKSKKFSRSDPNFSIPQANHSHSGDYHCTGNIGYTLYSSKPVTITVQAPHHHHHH


What was measured:
[1] = biological target: T7, FcγRIa extracellular domain with C-terminal His tag (human, UniProt P12314 16-292); assay: SPR; % of GpH7-A5/GpH7-B3/GpL16-k0
T7 construct: extracellular domain; also called 1a; CD64
T7 sequence (P12314 other isoform, or with tags, fused parts or gaps): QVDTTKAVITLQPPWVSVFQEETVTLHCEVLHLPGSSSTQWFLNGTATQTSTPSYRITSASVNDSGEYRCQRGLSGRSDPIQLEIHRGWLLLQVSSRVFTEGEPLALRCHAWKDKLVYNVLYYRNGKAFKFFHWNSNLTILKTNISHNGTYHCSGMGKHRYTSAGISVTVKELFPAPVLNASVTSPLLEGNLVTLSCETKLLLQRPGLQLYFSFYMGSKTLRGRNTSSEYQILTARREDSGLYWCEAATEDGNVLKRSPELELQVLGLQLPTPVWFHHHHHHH

[2] = biological target: T1, FcγRIIa(R) extracellular domain with …; assay: SPR; % of GpH7-A5/GpH7-B3/GpL16-k0
[3] = biological target: T2, FcγRIIa(H) extracellular domain with …; assay: SPR; % of GpH7-A5/GpH7-B3/GpL16-k0
[4] = biological target: T3, FcγRIIb extracellular domain with …; assay: SPR; % of GpH7-A5/GpH7-B3/GpL16-k0
[5] = biological target: T8, FcγRIIIa extracellular domain with C-terminal His tag (human, UniProt P08637 17-208); assay: SPR; % of GpH7-A5/GpH7-B3/GpL16-k0
T8 construct: extracellular domain; also called 3a; CD16
T8 sequence (P08637 other isoform, or with tags, fused parts or gaps): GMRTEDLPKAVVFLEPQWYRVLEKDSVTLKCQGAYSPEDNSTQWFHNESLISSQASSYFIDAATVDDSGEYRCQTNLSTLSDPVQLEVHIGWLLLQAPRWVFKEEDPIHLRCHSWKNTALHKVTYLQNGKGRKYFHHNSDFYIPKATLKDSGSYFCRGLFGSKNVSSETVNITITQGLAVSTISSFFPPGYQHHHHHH

FcγRIa = biological target: T9, FcγRIa (human, UniProt P12314 16-292); assay: SPR (Biacore), binding relative to GpH7-A5/GpH7-B3/GpL16-k0 x100;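 note: surface plasmon resonance at 25 °C, antibody captured on a sensor chip and soluble FcγR flowed over it in HBS-EP+ running buffer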
T9 construct: extracellular domain; also called 1a
T9 sequence (P12314 other isoform, or with tags, fused parts or gaps): as the sequence (P12314 other isoform, or with tags, fused parts or gaps) above
Protocol: (§1) The antibody of interest was analyzed for its interaction with FcγR using a BiaCore™ T100, BiaCore™ A100, or BiaCore™ 4000 surface plasmon resonance system (GE Healthcare Japan Corp.). The running buffer used was HBS-EP+ (GE Healthcare Japan Corp.). The assay temperature was set to 25° C. The sensor chips used were: a chip prepared by immobilizing antigenic peptides onto Series S Sensor Chip CM5 (GE Healthcare Japan Corp.) by the amine coupling method; a chip prepared by immobilizing antigenic peptides biotinylated in advance onto Series S Sensor Chip SA (certified) (GE Healthcare Japan Corp.) through their interaction; a chip prepared by immobilizing protein L (ACTIGEN, BioVision, Inc.) onto Series S Sensor Chip CM5 (GE Healthcare Japan Corp.); and a chip prepared by immobilizing protein A/G (Thermo Fisher Scientific K.K.) onto Series S Sensor Chip CM5 (GE Healthcare Japan Corp.). The antibody of interest was captured onto any of these chips and allowed to interact with FcγR diluted with a running buffer. The antibody captured on the chip was washed off through the reaction of 10 mM glycine-HCl (pH 1.5) to regenerate the chip, which was repetitively used.

FcγRIIa(R) = biological target: T4, FcγRIIa(R); assay: as above
Protocol: as §1

FcγRIIa(H) = biological target: T5, FcγRIIa(H); assay: as above
Protocol: as §1

FcγRIIb = biological target: T6, FcγRIIb; assay: as above
Protocol: as §1

Row | Binder | He/Con 1a [1] [%] | He/Con 2aR [2] [%] | He/Con 2aH [3] [%] | He/Con 2b [4] [%] | He/Con 3a [5] [%] | He/Con 1a (FcγRIa) [%] | He/Con 2aR (FcγRIIa(R)) [%] | He/Con 2aH (FcγRIIa(H)) [%] | He/Con 2b (FcγRIIb) [%]
1 | GpH7-A5/GpH7-B3 variant D270_14T/GpL16-k0 (antibody, human IgG1, kappa, heterodimerized IgG1, one H chain mutated; also called He Ab) heavy 1: not shown heavy 2: not shown light: DIVMTQSPLSLPVTPGEPASISCQASESLVHSNRNTYLHWYLQKPGQSPQLLIYKVSNRFSGVPDRFSGSGSGTDFTLKISRVEAEDVGVYYCSQNTHVPPTFGQGTKVEIERTVAAPSVFIFPPSDEQLKSGTASVVCLLNNFYPREAKVQWKVDNALQSGNSQESVTEQDSKDSTYSLSSTLTLSKADYEKHKVYACEVTHQGLSSPVTKSFNRGEC |  |  |  |  |  | 89.5 | 72.2 | 81.3 | 54.8
2 | GpH7-A5/GpH7-B3 variant D270_10E/GpL16-k0 (antibody, human IgG1, kappa, heterodimerized IgG1, one H chain mutated; also called He Ab) heavy 1: not shown heavy 2: not shown light: DIVMTQSPLSLPVTPGEPASISCQASESLVHSNRNTYLHWYLQKPGQSPQLLIYKVSNRFSGVPDRFSGSGSGTDFTLKISRVEAEDVGVYYCSQNTHVPPTFGQGTKVEIERTVAAPSVFIFPPSDEQLKSGTASVVCLLNNFYPREAKVQWKVDNALQSGNSQESVTEQDSKDSTYSLSSTLTLSKADYEKHKVYACEVTHQGLSSPVTKSFNRGEC |  |  |  |  |  | 104 | 85.7 | 111 | 72.5
3 | GpH7-A5/GpH7-B3 variant D270_08L/GpL16-k0 (antibody, human IgG1, kappa, heterodimerized IgG1, one H chain mutated; also called He Ab) heavy 1: not shown heavy 2: not shown light: DIVMTQSPLSLPVTPGEPASISCQASESLVHSNRNTYLHWYLQKPGQSPQLLIYKVSNRFSGVPDRFSGSGSGTDFTLKISRVEAEDVGVYYCSQNTHVPPTFGQGTKVEIERTVAAPSVFIFPPSDEQLKSGTASVVCLLNNFYPREAKVQWKVDNALQSGNSQESVTEQDSKDSTYSLSSTLTLSKADYEKHKVYACEVTHQGLSSPVTKSFNRGEC |  |  |  |  |  | 93.2 | 62.8 | 81.8 | 50.8

Results, then the binder that gave them:

Row | He/Con 1a [1] [%] | He/Con 2aR [2] [%] | He/Con 2aH [3] [%] | He/Con 2b [4] [%] | He/Con 3a [5] [%] | He/Con 1a (FcγRIa) [%] | He/Con 2aR (FcγRIIa(R)) [%] | He/Con 2aH (FcγRIIa(H)) [%] | He/Con 2b (FcγRIIb) [%] | Binder
4 | 114 | 105 | 103 | 99.4 | 91.7 |  |  |  |  | GpH7-A5/GpH7-B3 variant T335_11K/GpL16-k0 (antibody, human IgG1, kappa, heterodimerized IgG1 (He Ab), mutation in one H chain only; also called He Ab) heavy 1: not shown heavy 2: not shown light: DIVMTQSPLSLPVTPGEPASISCQASESLVHSNRNTYLHWYLQKPGQSPQLLIYKVSNRFSGVPDRFSGSGSGTDFTLKISRVEAEDVGVYYCSQNTHVPPTFGQGTKVEIERTVAAPSVFIFPPSDEQLKSGTASVVCLLNNFYPREAKVQWKVDNALQSGNSQESVTEQDSKDSTYSLSSTLTLSKADYEKHKVYACEVTHQGLSSPVTKSFNRGEC
5 | 108 | 116 | 110 | 111 | 100 |  |  |  |  | GpH7-A5/GpH7-B3 variant T335_13S/GpL16-k0 (antibody, human IgG1, kappa, heterodimerized IgG1 (He Ab), mutation in one H chain only; also called He Ab) heavy 1: not shown heavy 2: not shown light: DIVMTQSPLSLPVTPGEPASISCQASESLVHSNRNTYLHWYLQKPGQSPQLLIYKVSNRFSGVPDRFSGSGSGTDFTLKISRVEAEDVGVYYCSQNTHVPPTFGQGTKVEIERTVAAPSVFIFPPSDEQLKSGTASVVCLLNNFYPREAKVQWKVDNALQSGNSQESVTEQDSKDSTYSLSSTLTLSKADYEKHKVYACEVTHQGLSSPVTKSFNRGEC
6 | 109 | 112 | 107 | 111 | 94.4 |  |  |  |  | GpH7-A5/GpH7-B3 variant T335_18N/GpL16-k0 (antibody, human IgG1, kappa, heterodimerized IgG1 (He Ab), mutation in one H chain only; also called He Ab) heavy 1: not shown heavy 2: not shown light: DIVMTQSPLSLPVTPGEPASISCQASESLVHSNRNTYLHWYLQKPGQSPQLLIYKVSNRFSGVPDRFSGSGSGTDFTLKISRVEAEDVGVYYCSQNTHVPPTFGQGTKVEIERTVAAPSVFIFPPSDEQLKSGTASVVCLLNNFYPREAKVQWKVDNALQSGNSQESVTEQDSKDSTYSLSSTLTLSKADYEKHKVYACEVTHQGLSSPVTKSFNRGEC
7 | 109 | 114 | 109 | 112 | 99.3 |  |  |  |  | GpH7-A5/GpH7-B3 variant T335_16H/GpL16-k0 (antibody, human IgG1, kappa, heterodimerized IgG1 (He Ab), mutation in one H chain only; also called He Ab) heavy 1: not shown heavy 2: not shown light: DIVMTQSPLSLPVTPGEPASISCQASESLVHSNRNTYLHWYLQKPGQSPQLLIYKVSNRFSGVPDRFSGSGSGTDFTLKISRVEAEDVGVYYCSQNTHVPPTFGQGTKVEIERTVAAPSVFIFPPSDEQLKSGTASVVCLLNNFYPREAKVQWKVDNALQSGNSQESVTEQDSKDSTYSLSSTLTLSKADYEKHKVYACEVTHQGLSSPVTKSFNRGEC
